Molecular target: Innovin, lyophilized recombinant human tissue factor combined with phospholipids (human) (UniProt P13726)
Assay: cell-based or functional assay

Innovin, lyophilized recombinant human tissue factor combined with phospholipids (human), sequence (P13726 33-295 limits assumed): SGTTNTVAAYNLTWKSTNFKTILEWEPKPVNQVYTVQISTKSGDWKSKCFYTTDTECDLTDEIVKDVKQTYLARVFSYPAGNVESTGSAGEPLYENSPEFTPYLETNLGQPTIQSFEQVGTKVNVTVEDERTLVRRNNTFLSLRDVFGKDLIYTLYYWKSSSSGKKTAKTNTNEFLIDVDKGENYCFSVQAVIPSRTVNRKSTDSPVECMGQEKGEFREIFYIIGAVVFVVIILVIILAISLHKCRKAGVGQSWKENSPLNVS

T½ Max (seconds), coagulation of human plasma: > 900 s
coagulation time: > 1800 s
Substance: CNTO 860, humanized form of the antibody 5G9, human IgG1/Kappa

— patent publication US20120237528A1
